Assay results: patent US20200385445A1

Assays:
[1] = target: mouse PVRIG over-expressed on HEK293 cells (RC-287; PVRIG-FLAG RC-286) (mouse); assay: FACS on cells OX mouse PVRIG, preliminary data
[2] = target: mouse PVRL2 splice variant 1 (sv1) over-expressed on HEK293 cells (RC-334) (mouse) (UniProt P32507); assay: FACS on HEK293 OX mouse PVRL2 sv1
[3] = target: mouse PVRL2 endogenously expressed on B16-F10 cells (mouse) (UniProt P32507); assay: FACS dose response on B16-F10 cells
[4] = target: mouse PVRL2 splice variant 2 (sv2) over-expressed on HEK293 cells (RC-335) (mouse) (UniProt P32507); assay: FACS dose response on HEK293 OX mouse PVRL2
[5] = target: mouse PVRIG over-expressed on HEK293 cells (RC-287; PVRIG-FLAG RC-286) (mouse); assay: FACS on HEK293 OX mouse PVRIG, 60 ug/ml, one of two sources
[6] = target: mouse PVRIG over-expressed on HEK293 cells (RC-287; PVRIG-FLAG RC-286) (mouse); assay: FACS on HEK293 OX mouse PVRIG, 60 ug/ml, other of two sources
[7] = target: mouse PVRIG over-expressed on HEK293 cells (RC-287; PVRIG-FLAG RC-286) (mouse); assay: FACS on cells OX mouse PVRIG

Sequence of mouse PVRL2-his (R&D, 3869-N2; Sino Biological, 50318-M08H) (P32507 32-351 limits assumed, stated change not applied): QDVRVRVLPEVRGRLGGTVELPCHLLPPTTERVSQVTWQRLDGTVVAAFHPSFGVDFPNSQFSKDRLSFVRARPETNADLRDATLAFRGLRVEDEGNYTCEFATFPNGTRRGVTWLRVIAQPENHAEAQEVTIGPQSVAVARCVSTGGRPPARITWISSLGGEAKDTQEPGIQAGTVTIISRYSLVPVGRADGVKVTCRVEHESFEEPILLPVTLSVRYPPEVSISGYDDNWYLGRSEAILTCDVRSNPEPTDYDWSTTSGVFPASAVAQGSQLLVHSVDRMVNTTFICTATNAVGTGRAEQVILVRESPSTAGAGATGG
Sequence of mouse PVRL2 splice variant 1 (sv1) over-expressed on HEK293 cells (RC-334) (mouse) (P32507 32-530, change not shown): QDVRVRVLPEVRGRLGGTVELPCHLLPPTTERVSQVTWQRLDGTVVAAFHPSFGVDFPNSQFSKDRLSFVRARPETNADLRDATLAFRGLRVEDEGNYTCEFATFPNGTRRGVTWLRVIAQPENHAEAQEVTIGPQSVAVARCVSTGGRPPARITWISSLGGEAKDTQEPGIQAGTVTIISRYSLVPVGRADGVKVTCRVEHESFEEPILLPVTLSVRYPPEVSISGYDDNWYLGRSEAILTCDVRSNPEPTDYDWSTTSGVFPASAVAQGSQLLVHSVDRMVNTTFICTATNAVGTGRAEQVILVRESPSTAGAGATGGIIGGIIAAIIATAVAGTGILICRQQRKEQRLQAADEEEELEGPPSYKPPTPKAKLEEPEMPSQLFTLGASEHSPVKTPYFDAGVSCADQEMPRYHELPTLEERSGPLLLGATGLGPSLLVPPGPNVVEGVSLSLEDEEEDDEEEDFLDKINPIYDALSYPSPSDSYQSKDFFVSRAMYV
Sequence of custom Fc-fused mouse PVRL2 (GenScript) (P32507 32-351 limits assumed): as the sequence (P32507 32-351 limits assumed, stated change not applied) above
Sequence of mouse PVRL2 endogenously expressed on B16-F10 cells (mouse) (P32507 32-530): as the sequence (P32507 32-530, change not shown) above
Sequence of mouse PVRL2 splice variant 2 (sv2) over-expressed on HEK293 cells (RC-335) (mouse) (P32507 32-530, change not shown): as above

## custom Fc-fused mouse PVRL2 (GenScript) (from UniProt P32507 32-351) (Fc fusion)
[1]
  fold binding: 5 fold

## PVRIG mECD-mIg fusion protein (ECD of mouse PVRIG fused to the Fc of mouse IgG2a) (Fc fusion)
[2]
  fold binding vs empty vector cells: 6 to 11 fold
[3]
  concentration at saturation of binding: 12.5 µg/mL
[4]
  concentration at saturation of binding: 12.5 µg/mL

## mouse PVRL2-his (R&D, 3869-N2; Sino Biological, 50318-M08H) (from UniProt P32507 32-351) (ligand)
[5]
  fold binding vs empty vector cells: 2 fold
[6]
  fold binding vs empty vector cells: 3 to 4 fold
[7]
  fold binding: 2 to 3 fold
